The results in this text go back to paper PMC12421323.

In series [1] the target is T1, nucleolin (C23) (UniProt P19338 2-710). Put plainly: EMSA. (Mobility shift assays separate free from complexed probe on a gel.)
Series [2] concerns the target T1, nucleolin (C23). Nature of the series: competition.
In series [3] the target is T1, nucleolin (C23). Nature of the series: EMSA. The source holds these as a separate data set.

T1 sequence (P19338 2-710): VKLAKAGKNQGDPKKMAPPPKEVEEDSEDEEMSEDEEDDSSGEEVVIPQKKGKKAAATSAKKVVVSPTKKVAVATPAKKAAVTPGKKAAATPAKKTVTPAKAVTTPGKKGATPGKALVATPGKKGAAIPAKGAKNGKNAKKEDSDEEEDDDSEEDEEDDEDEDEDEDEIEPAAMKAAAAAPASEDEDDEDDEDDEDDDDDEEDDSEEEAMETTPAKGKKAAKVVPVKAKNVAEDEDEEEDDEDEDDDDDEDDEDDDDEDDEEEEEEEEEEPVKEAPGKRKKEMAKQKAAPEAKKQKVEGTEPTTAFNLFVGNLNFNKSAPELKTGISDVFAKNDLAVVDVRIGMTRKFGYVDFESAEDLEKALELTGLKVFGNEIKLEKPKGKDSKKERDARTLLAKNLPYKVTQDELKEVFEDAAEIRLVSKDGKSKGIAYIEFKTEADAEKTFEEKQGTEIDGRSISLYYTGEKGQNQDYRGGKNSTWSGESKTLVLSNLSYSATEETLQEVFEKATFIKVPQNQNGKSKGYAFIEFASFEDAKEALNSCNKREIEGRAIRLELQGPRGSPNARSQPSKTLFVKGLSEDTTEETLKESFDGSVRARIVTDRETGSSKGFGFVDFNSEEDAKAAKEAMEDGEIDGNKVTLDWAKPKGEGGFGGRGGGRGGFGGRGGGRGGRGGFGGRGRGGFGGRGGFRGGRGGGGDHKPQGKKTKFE

As to TTGGGCGGGCCGGGGGCGGG (structured_DNA) [VEGF G4], in the series with nucleolin (C23) [1], the binding result was “binds”.

TTGGGCGGGCCGGGGGCGGG (structured_DNA) [VEGF G4 (unlabelled)]: in the series with nucleolin (C23) [2], the binding result was “binds”.

With UGCUUACGUAGCGUGCCUUA (ssRNA) [ssRNA 2], the binding result with nucleolin (C23) [3] is “binds”.
